± gives the uncertainty stated by the source.
Assay: amyloid nucleation score (Sup35N fusion, yeast selection) (log enrichment); library NNK3; higher = more nucleation; inactive = no reads after selection
Outline: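 Sup35N fusions to peptides of 20 random codons were expressed in psi-negative yeast, induced 24 hours with 100 μM copper sulfate, and grown 7 days at 30°C on medium lacking adenine and uracil. Input and output plasmid inserts were sequenced by Illumina. The nucleation score is the DiMSum log enrichment of output over input reads, centred on the mode score of non-aggregating sequences. Sequences with under 100 input reads were excluded.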

| Substance | amyloid nucleation score |
| --- | --- |
| FDSQGEPVPKPSAMMRGRMC | inactive |
| FDVIS | inactive |
| FDVRCLWYCQK | 1.33 ± 0.17 |
| FECDKENSSLDSPFMLAFKD | inactive |
| FECMRELPRAPTKPGSWRHA | inactive |
| FEDCSTLH | -0.482 ± 0.84 |
| FERDMVQ | inactive |
| FERSMHFENRDSDPCYIVRF | inactive |
| FEWFQCIYA | inactive |
| FFAECCRGNKCYMRSKDDQS | inactive |
| FFARDVRSN | inactive |
| FFCKRFYSKFPDQWLAHSVE | inactive |
| FFCSSTPKSWMCKQTL | inactive |
| FFFTEFFELHIWTKSLPFTS | inactive |
| FFFVSSIRIICRV | inactive |
| FFFYLPICTLGILYLFDCKA | 0.386 ± 0.2 |
| FFGFPLV | inactive |
| FFIDFVGTRCFN | inactive |
| FFLTHGCTCEDALKFGWVCY | inactive |
| FFNIYLVRNSYQKTCAGLTR | 2.05 ± 0.091 |
| FFNYIIMEIHFFALLSHRKH | inactive |
| FFPDGDQTYMA | inactive |
| FFQESYLGMDLYELSTYNNV | inactive |
| FFRIVSLCSSPGNGEDKDRL | inactive |

| Substance | amyloid nucleation score |
| --- | --- |
| FFSCFCLLMRY | inactive |
| FFSDRLTSTGSMES | inactive |
| FFSSGVVRQAYVLVAEDNVS | inactive |
| FFSTQAFLDLAHTRFVNPLG | inactive |
| FFTMSKI | inactive |
| FFVHRCIYVNGWKGQTHSSQ | inactive |
| FFVLLLFVRVYKIALNFMMG | inactive |
| FFVMCARGHTMRSYTFFVK | inactive |
| FFYSAFENMMMALLKMRKFH | inactive |
| FGEVNIAYRMIMRMSGQGGK | 0.998 ± 0.17 |
| FGEYKMISVEYLVLEIVRYM | inactive |
| FGFCWLFNLCYLGNVVYAVM | inactive |
| FGFYSCTLGG | inactive |
| FGGAYFVTPGAYFVWYSFLG | 0.222 ± 0.31 |
| FGMKTYRLQIGYNITVCHSI | -0.603 ± 0.58 |
| FGNINLCMCFWKMEIECLTR | inactive |
| FGTNVLYAFM | inactive |
| FGVSFKYFCVQEQLAKDSVA | inactive |
| FGVVWGSKLFCRFGSVTIYP | inactive |
| FGYPMPIRNVSVVPVLFYKG | inactive |
| FHEFSTSFWSFEASLLTARL | inactive |
| FHFFYYTLFNCHHGLFTSFF | inactive |
| FHFYGFCLYAYFSAIEDQNC | 2.06 ± 0.071 |
| FHMFYRFSGDNGPKKFH | 0.607 ± 0.26 |

| Substance | amyloid nucleation score |
| --- | --- |
| FHMIECGVYAKHLGHCTRYI | -0.079 ± 0.33 |
| FHNVGLI | 1.77 ± 0.093 |
| FHPFMCSYGSGWDGRLVHCG | inactive |
| FHTFSLTSINMVLLSFVVRF | inactive |
| FHTLLLCSDVSSARWFADWF | inactive |
| FHTWISGLPEVHWGVLEVRW | inactive |
| FHYGLSWLSSTKGSYVFYIG | inactive |
| FIALIYVIIPDIEGSVYVSN | inactive |
| FIGGVVTVTVYNNTVESGLK | 1.65 ± 0.13 |
| FIGVCNLVWMELPLDAMRFF | 1.36 ± 0.11 |
| FIILKYGLYM | 0.507 ± 0.14 |
| FIKHVRIKFTWSVSREF | inactive |
| FIQWQSESVYIAYSNFTSSM | inactive |
| FIRGVSYDFIDRSIILFLEV | inactive |
| FIRLFEYMRGLPLLVKNDSV | 0.234 ± 0.72 |
| FIRLYDKIRWYNDGNWVWHV | inactive |
| FIRMVGRLKKWRVS | inactive |
| FIRTGELLFLVEWPLVCYTK | inactive |
| FISRSGAVGRRS | inactive |
| FIVVDMDSYRAVDGARVFVE | inactive |
| FIVYLSCPWVRRFIVVMEFM | inactive |
| FIYDEQSSDSVV | inactive |
| FKAPWLSGP | inactive |
| FKDCED | -0.328 ± 0.6 |

| Substance | amyloid nucleation score |
| --- | --- |
| FKGLVVMKGLLNMIGGGACH | 0.27 ± 0.4 |
| FKMPTIRLVLK | inactive |
| FKSAFWLIM | inactive |
| FKYLWADREVNVGQKHSVIG | -0.174 ± 0.7 |
| FLACSDVVYSDN | inactive |
| FLAGDWSKGFNKYYTYYISK | inactive |
| FLCMSLATRMLTFRLFPTNL | inactive |
| FLDPYSHRLSAKALYM | inactive |
| FLDVALLKSMNCSASREVGV | inactive |
| FLGAVRLYSPAHTY | inactive |
| FLIDNCYWYPHCAPIVAPWL | inactive |
| FLIWGKQPWTRKLLGTIVPV | inactive |
| FLLGPSLTPNSMG | inactive |
| FLLMC | inactive |
| FLLMLFVSGVRLFDYRRFWH | inactive |
| FLLVMYT | 0.167 ± 0.25 |
| FLLVNLTVITRACEKLPMRP | -0.277 ± 1.1 |
| FLMDNMVSGIVFFTSSVIRG | inactive |
| FLNLHTVCC | inactive |
| FLNRSTAIWKYRLIAQRVGD | inactive |
| FLPWDFKASKKEPYSKYMNL | inactive |
| FLRLCLVVRLRCVVISMGNY | inactive |
| FLRNIFDGRTWTFKDSNMSH | inactive |
| FLRSSVCA | inactive |

| Substance | amyloid nucleation score |
| --- | --- |
| FLSFSFYLVYRRKSVRFQ | inactive |
| FLSYTPRATGYHFFRLSIFC | inactive |
| FLTFRPSLSTRHLFLMESHT | inactive |
| FLTLSSFHRPMVE | inactive |
| FLVWDFRSERKRKKI | inactive |
| FLVYLRR | 1.17 ± 0.11 |
| FLWVAANLDFVYDEREHIRG | inactive |
| FLYAFLPWRCVKNFFCSKVL | inactive |
| FLYYLLMLVRVRCFEQVVIV | inactive |
| FMEHLLYE | inactive |
| FMIFDWVTYIKVTVKCWW | inactive |
| FMLCLMATLRKGLDANLWVT | inactive |
| FMPANAFWTKFCSARNRLYI | -0.135 ± 0.57 |
| FMRDD | inactive |
| FMRGTVLKTRNYRFRQAHEE | inactive |
| FMTFPRASADRDFFSRVLHL | inactive |
| FMTIIKRWDVWNFCRSSGAV | inactive |
| FMVWYREMDLVLVAQREEYK | inactive |
| FMYRTDRYHVRGVITWRLSM | inactive |
| FMYSGAVSDVRLNSSGDSLG | -0.516 ± 0.96 |
| FNARLFISLLIKDRK | inactive |

From the supplement of paper PMC12042874
